Columns and labels:
[1] = target: AC10 Olio6; experiment: SPR (ligand and analyte not given)
[2] = target: BG505 MD53; experiment: SPR (ligand and analyte not given)
[3] = target: MD39-10MUT; experiment: SPR, trimer ligand, Fab analyte (1-to-1 fit relatively poor) [panel A]

Binder	Kd [1] [nM]	Kd [2] [nM]	Kd [3] [nM]
PGT145 (antibody, V domains shown) VH: QVQLVQSGAEVKKPGSSVKVSCKASGNSFSNHDVHWVRQATGQGLEWMGWMSHEGDKTGLAQKFQGRVTITRDSGASTVYMELRGLTADDTAIYYCLTGSKHRLRDYFLYNEYGPNYEEWGDYLATLDVWGHGTAVTVSS VL: EVVITQSPLFLPVTPGEAASLSCKCSHSLQHSTGANYLAWYLQRPGQTPRLLIHLATHRASGVPDRFSGSGSGTDFTLKISRVESDDVGTYYCMQGLHSPWTFGQGTKVEIKR	53	22	
PGT151 Fab (Fab, V domains shown) VH: RVQLVESGGGVVQPGKSVRLSCVVSDFPFSKYPMYWVRQAPGKGLEWVAAISGDAWHVVYSNSVQGRFLVSRDNVKNTLYLEMNSLKIEDTAVYRCARMFQESGPPRLDRWSGRNYYYYSGMDVWGQGTTVTVSS VL: DIVMTQTPLSLSVTPGQPASISCKSSESLRQSNGKTSLYWYRQKPGQSPQLLVFEVSNRFSGVSDRFVGSGSGTDFTLRISRVEAEDVGFYYCMQSKDFPLTFGGGTKVDLKR			35

From patent publication US20260273042A1 (INTERNATIONAL AIDS VACCINE INITIATIVE, published 2026)
